# Reference: publication PMC7954794, “Protein context shapes the specificity of SH3 domain-mediated interactions in vivo” (Nature Communications, 2021)
# B1: WT¦WT¦WT (protein, UniProt P32790 1-1244, looked up)
# Actin cytoskeleton-regulatory …: MTVFLGIYRAVYAYEPQTPEELAIQEDDLLYLLQKSDIDDWWTVKKRVIGSDSEEPVGLVPSTYIEEAPVLKKVRAIYDYEQVQNADEELTFHENDVFDVFDDKDADWLLVKSTVSNEFGFIPGNYVEPENGSTSKQEQAPAAAEAPAATPAAAPASAAVLPTNFLPPPQHNDRARMMQSKEDQAPDEDEEGPPPAMPARPTATTETTDATAAAVRSRTRLSYSDNDNDDEEDDYYYNSNSNNVGNHEYNTEYHSWNVTEIEGRKKKKAKLSIGNNKINFIPQKGTPHEWSIDKLVSYDNEKKHMFLEFVDPYRSLELHTGNTTTCEEIMNIIGEYKGASRDPGLREVEMASKSKKRGIVQYDFMAESQDELTIKSGDKVYILDDKKSKDWWMCQLVDSGKSGLVPAQFIEPVRDKKHTESTASGIIKSIKKNFTKSPSRSRSRSRSKSNANASWKDDELQNDVVGSAAGKRSRKSSLSSHKKNSSATKDFPNPKKSRLWVDRSGTFKVDAEFIGCAKGKIHLHKANGVKIAVAADKLSNEDLAYVEKITGFSLEKFKANDGSSSRGTDSRDSERERRRRLKEQEEKERDRRLKERELYELKKARELLDEERSRLQEKELPPIKPPRPTSTTSVPNTTSVPPAESSNNNNSSNKYDWFEFFLNCGVDVSNCQRYTINFDREQLTEDMMPDINNSMLRTLGLREGDIVRVMKHLDKKFGRENIASIPTNATGNMFSQPDGSLNVATSPETSLPQQLLPQTTSPAQTAPSTSAETDDAWTVKPASKSESNLLSKKSEFTGSMQDLLDLQPLEPKKAAASTPEPNLKDLEPVKTGGTTVPAAPVSSAPVSSAPAPLDPFKTGGNNILPLSTGFVMMPMITGGDMLPMQRTGGFVVPQTTFGMQSQVTGGILPVQKTGNGLIPISNTGGAMMPQTTFGAAATVLPLQKTGGGLIPIATTGGAQFPQTSFNVQGQQQLPTGSILPVQKTANGLISANTGVSMPTVQRTGGTMIPQTSFGVSQQLTGGAMMTQPQNTGSAMMPQTSFNAVPQITGGAMMPQTSFNALPQVTGGAMMPLQRTGGALNTFNTGGAMIPQTSFSSQAQNTGGFRPQSQFGLTLQKTGGIAPLNQNQFTGGAMNTLSTGGVLQQQQPQTMNTFNTGGVMQELQMMTTFNTGGAMQQPQMMNTFNTDGIMQQPQMMNTFNTGGAMQQPQQQALQNQPTGFGFGNGPQQSRQANIFNATASNPFGF
# Tested on: Sla1 PPIs
# Assay: DHFR-PCA of Sla1 SH3-swapped, -shuffled or -deleted baits (Fig. 2E, 4B, 4D, S5A)
# Assay type: cell-based, Saccharomyces cerevisiae
# Text: The stuffing of YSC84 SH3 rendered the strain sterile and was therefore not used for this study as the assays require crosses. For genes containing two SH3s (BZZ1 and BEM1), a combination of this first stuffer with a second one ([…]) coding for a highly similar linker ([…]) was used, which allowed targeting each SH3 position independently. The two N-terminal domains of SLA1, which are separated by six nucleotides, were stuffed by a single stuffer. Cells containing pCAS were selected via the G418 resistance cassette from the plasmid on YPD plates (YPD + NAT 100 μg/ml (DHFR F[1,2] selection) + G418 200 µg/mL (Bioshop Canada)). Colonies were randomly selected and grown in YPD media without G418 to allow plasmid loss. The correct insertion of the stuffer was validated by PCR and Sanger sequencing. The SH3-swapped, -shuffled, and -mutated strains were constructed following a second CRISPR–Cas9 editing step with the same procedures. The stuffer sequences were targeted by specific gRNAs (one gRNA per stuffer) and replaced by PCR amplified specific SH3 (with 40 bp homology arms) or libraries of mutated SH3 domains for Deep Mutational Scanning (DMS) with 78 bp flanking homology regions. Validation of the SH3 domain insertions was done as we previously described except for DMS libraries (see below).
# The overall DHFR-PCA pipeline is based on Tarassov et al.[43] and the procedures have also been published as a visualized protocol. The screens were performed with robotically manipulated pin tools (BM5-SC1, S&P Robotics Inc.). First, the preys were cherry-picked from 96-well plates to omnitrays in a 384 format on YPD + HPH solid media. Plates were then combined into the 1536 format on YPD + HPH. The array was constituted of 575 preys previously shown to interact physically with at least one SH3-containing protein as reported in BioGRID V3.4.16 along with 40 negative controls. The prey array comprised a border of control strains of two rows and two columns corresponding to the PPI between LSM8-DHFR F[1,2] and CDC39-DHFR F[3]. This double border was used to remove border effects. Preys are present in duplicate at a randomized position in the 1536 array (except for YAL041W which is present four times per array). Baits were crossed with two prey plates, resulting in four independent bait–prey tests for each PPI. Baits were grown in liquid YPD + NAT and then transferred on solid YPD + NAT omnitrays. They were then replicated on YPD + NAT omnitrays in 1536 array format. Mating of DHFR F[1,2] baits with DHFR F[3] preys was done on YPD followed by incubation at 30 °C for 48 h. Two diploid selection steps were performed by replicating the plates on YPD + NAT + HPH and incubating them for 48 h at 30 °C. Pictures were taken at the end of the second diploid selection for quality control. All images were acquired with a EOS Rebel T5i camera (Canon). Finally, the diploid cells were replicated on omnitrays containing solid PCA selection media and incubated for 4 days as a first selection step in a spImager custom robotic platform (S&P Robotics Inc.). Cells were replicated for a second PCA selection step and incubated in the same manner. The last time point of the second PCA selection step was used for the data analysis as in previous studies using this method.
# A separate DHFR-PCA screen was performed for the Sla1 SH3 shuffling experiment, with the same analysis as previously described. Three plates had no detectable level of background, which correspond to the second plate of the three Sla1 SH3 WT re-insertion controls. They were attributed the average of the background of the three first plates of the same baits. The threshold was also determined based on the distribution of the PCA scores of all PPIs and corresponds to the top 2.75% of all colonies detected in this experiment. […] Almost all true PPIs are from four replicates (96.2%). […]
molecule,measurement,setting,value
B1,Protein-protein interaction distance between Sla1 baits,distance to bait ABP1¦WT¦WT,8.25
same,Protein-protein interaction distance between Sla1 baits,"distance to bait ABP1¦WT¦WT, listed as WT¦WT¦WT*",10.6959
same,Protein-protein interaction distance between Sla1 baits,distance to bait D¦D¦D,16.1793
same,Protein-protein interaction distance between Sla1 baits,"distance to bait D¦D¦D, listed as WT¦WT¦WT*",19.5303
same,Protein-protein interaction distance between Sla1 baits,distance to bait D¦D¦SH3-1,16.1305
same,Protein-protein interaction distance between Sla1 baits,"distance to bait D¦D¦SH3-1, listed as WT¦WT¦WT*",19.4574
same,Protein-protein interaction distance between Sla1 baits,distance to bait D¦D¦WT,16.2907
same,Protein-protein interaction distance between Sla1 baits,"distance to bait D¦D¦WT, listed as WT¦WT¦WT*",19.6881
same,Protein-protein interaction distance between Sla1 baits,distance to bait D¦WT¦D,11.2982
same,Protein-protein interaction distance between Sla1 baits,"distance to bait D¦WT¦D, listed as WT¦WT¦WT*",13.9439
same,Protein-protein interaction distance between Sla1 baits,distance to bait D¦WT¦SH3-1,14.8539
same,Protein-protein interaction distance between Sla1 baits,"distance to bait D¦WT¦SH3-1, listed as WT¦WT¦WT*",18.0045
same,Protein-protein interaction distance between Sla1 baits,distance to bait D¦WT¦SH3-2,16.1112
same,Protein-protein interaction distance between Sla1 baits,"distance to bait D¦WT¦SH3-2, listed as WT¦WT¦WT*",19.4593
same,Protein-protein interaction distance between Sla1 baits,distance to bait D¦WT¦WT,11.2206
same,Protein-protein interaction distance between Sla1 baits,"distance to bait D¦WT¦WT, listed as WT¦WT¦WT*",13.8561
same,Protein-protein interaction distance between Sla1 baits,distance to bait SH3-2¦SH3-1¦WT,14.7068
same,Protein-protein interaction distance between Sla1 baits,"distance to bait SH3-2¦SH3-1¦WT, listed as WT¦WT¦WT*",17.8199
same,Protein-protein interaction distance between Sla1 baits,distance to bait SH3-2¦WT¦D,16.5686
same,Protein-protein interaction distance between Sla1 baits,"distance to bait SH3-2¦WT¦D, listed as WT¦WT¦WT*",19.9645
same,Protein-protein interaction distance between Sla1 baits,distance to bait SH3-2¦WT¦WT,10.6088
same,Protein-protein interaction distance between Sla1 baits,"distance to bait SH3-2¦WT¦WT, listed as WT¦WT¦WT*",13.1093
same,Protein-protein interaction distance between Sla1 baits,distance to bait SH3-3¦SH3-1¦D,6.071
same,Protein-protein interaction distance between Sla1 baits,"distance to bait SH3-3¦SH3-1¦D, listed as WT¦WT¦WT*",7.132
same,Protein-protein interaction distance between Sla1 baits,distance to bait SH3-3¦SH3-1¦SH3-2,11.1253
same,Protein-protein interaction distance between Sla1 baits,"distance to bait SH3-3¦SH3-1¦SH3-2, listed as WT¦WT¦WT*",13.2567
same,Protein-protein interaction distance between Sla1 baits,distance to bait SH3-3¦WT¦D,6.23
same,Protein-protein interaction distance between Sla1 baits,"distance to bait SH3-3¦WT¦D, listed as WT¦WT¦WT*",7.588
same,Protein-protein interaction distance between Sla1 baits,distance to bait SH3-3¦WT¦SH3-1,7.451
same,Protein-protein interaction distance between Sla1 baits,"distance to bait SH3-3¦WT¦SH3-1, listed as WT¦WT¦WT*",7.53
same,Protein-protein interaction distance between Sla1 baits,distance to bait SH3-3¦WT¦WT,5.911
same,Protein-protein interaction distance between Sla1 baits,"distance to bait SH3-3¦WT¦WT, listed as WT¦WT¦WT*",7.517
same,Protein-protein interaction distance between Sla1 baits,distance to bait WT*¦WT¦WT,6.431
same,Protein-protein interaction distance between Sla1 baits,"distance to bait WT*¦WT¦WT, listed as WT¦WT¦WT*",3.21
same,Protein-protein interaction distance between Sla1 baits,distance to bait WT¦ABP1¦WT,7.491
same,Protein-protein interaction distance between Sla1 baits,"distance to bait WT¦ABP1¦WT, listed as WT¦WT¦WT*",10.0527
same,Protein-protein interaction distance between Sla1 baits,distance to bait WT¦D¦D,10.9978
same,Protein-protein interaction distance between Sla1 baits,"distance to bait WT¦D¦D, listed as WT¦WT¦WT*",13.667
same,Protein-protein interaction distance between Sla1 baits,distance to bait WT¦D¦SH3-2,12.0771
same,Protein-protein interaction distance between Sla1 baits,"distance to bait WT¦D¦SH3-2, listed as WT¦WT¦WT*",14.877
same,Protein-protein interaction distance between Sla1 baits,distance to bait WT¦D¦WT,11.0221
same,Protein-protein interaction distance between Sla1 baits,"distance to bait WT¦D¦WT, listed as WT¦WT¦WT*",13.7143
same,Protein-protein interaction distance between Sla1 baits,distance to bait WT¦SH3-1¦D,6.357
same,Protein-protein interaction distance between Sla1 baits,"distance to bait WT¦SH3-1¦D, listed as WT¦WT¦WT*",7.675
same,Protein-protein interaction distance between Sla1 baits,distance to bait WT¦SH3-1¦WT,5.709
same,Protein-protein interaction distance between Sla1 baits,"distance to bait WT¦SH3-1¦WT, listed as WT¦WT¦WT*",7.171
same,Protein-protein interaction distance between Sla1 baits,distance to bait WT¦SH3-3¦D,9.961
same,Protein-protein interaction distance between Sla1 baits,"distance to bait WT¦SH3-3¦D, listed as WT¦WT¦WT*",12.4074
same,Protein-protein interaction distance between Sla1 baits,distance to bait WT¦SH3-3¦SH3-2,12.7354
same,Protein-protein interaction distance between Sla1 baits,"distance to bait WT¦SH3-3¦SH3-2, listed as WT¦WT¦WT*",15.4687
same,Protein-protein interaction distance between Sla1 baits,distance to bait WT¦SH3-3¦WT,10.0693
same,Protein-protein interaction distance between Sla1 baits,"distance to bait WT¦SH3-3¦WT, listed as WT¦WT¦WT*",12.5958
same,Protein-protein interaction distance between Sla1 baits,distance to bait WT¦WT*¦WT,6.129
same,Protein-protein interaction distance between Sla1 baits,"distance to bait WT¦WT*¦WT, listed as WT¦WT¦WT*",3.181
same,Protein-protein interaction distance between Sla1 baits,distance to bait WT¦WT¦ABP1,9
same,Protein-protein interaction distance between Sla1 baits,"distance to bait WT¦WT¦ABP1, listed as WT¦WT¦WT*",10.6328
same,Protein-protein interaction distance between Sla1 baits,distance to bait WT¦WT¦D,5.067
same,Protein-protein interaction distance between Sla1 baits,"distance to bait WT¦WT¦D, listed as WT¦WT¦WT*",7.2651
same,Protein-protein interaction distance between Sla1 baits,distance to bait WT¦WT¦SH3-1,4.945
same,Protein-protein interaction distance between Sla1 baits,"distance to bait WT¦WT¦SH3-1, listed as WT¦WT¦WT*",5.794
same,Protein-protein interaction distance between Sla1 baits,distance to bait WT¦WT¦SH3-2,5.746
same,Protein-protein interaction distance between Sla1 baits,"distance to bait WT¦WT¦SH3-2, listed as WT¦WT¦WT*",6.816
same,Protein-protein interaction distance between Sla1 baits,distance to bait WT¦WT¦WT,0
same,Protein-protein interaction distance between Sla1 baits,distance to bait WT¦WT¦WT*,6.956
same,Protein-protein interaction distance between Sla1 baits,"distance to bait WT¦WT¦WT*, listed as WT¦WT¦WT*",0
same,Protein-protein interaction distance between Sla1 baits,"distance to bait WT¦WT¦WT, listed as WT¦WT¦WT*",6.956
